# Assay results from PMC11008599 (Frontiers in Immunology, 2024).
# B1: aIL2_1-SNV-N (other)
# chain: LKEVQDNIGSSCPESYRFHSDRWSRNCCIPDSWDDSYVWNCDHYAVRPAIGSLKRELADL
# notes: also called aIL2_1, SNV-N framework; not shown: His8, C-terminal, kept
# B2: aIL2_1-BECN1 (other, bovine (knob domain))
# chain: YQREYSEFKRQQLELDDELGSSCPESYRFHSDRWSRNCCIPDSWDDSYVWNCDHYAVRPAIGSLIQELEDVEKNRKIVAENL
# notes: also called aIL2_1, BECN1 framework; not shown: His8, C-terminal, kept
# Tests used:
# human IL-2 [1] = target: T1, human IL-2 (human, UniProt P60568 21-153); assay: SPR; […], Biacore 8K+; […]; HBS-EP+; […]; conditions: both partners purified
# T1 construct: The source is told for the ELISA; nothing else is said for the SPR
# T1 sequence (P60568 21-153): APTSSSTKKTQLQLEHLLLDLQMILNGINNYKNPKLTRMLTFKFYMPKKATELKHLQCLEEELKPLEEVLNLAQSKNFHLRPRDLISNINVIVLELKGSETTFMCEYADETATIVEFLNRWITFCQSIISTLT
# human IL-2 [2] = target: T1, human IL-2; assay: SPR; multicycle kinetics, Biacore 8K+; knob domain constructs immobilised on a CM5 chip via amine coupling, IL-2 in solution; HBS-EP+; two-state binding model, only the fastest association and the slowest dissociation rate constants reported; conditions: both partners purified
binder,measurement,setting,value
B1,Kd,human IL-2 [1],9.4 nM
B2,Kd,human IL-2 [2],10.8 nM
